The values below are quoted from earlier work in publication PMC6310256.

This series has as its target complement C5 (human, recombinant) (UniProt P01031). Briefly: SPR (Biacore), as reported in ref 17. To be noted: cited from earlier work. A general note: In SPR one partner is held on a chip, and binding of the other changes the refractive index at the surface.
Sequence of UniProt P01031 (P01031 whole entry): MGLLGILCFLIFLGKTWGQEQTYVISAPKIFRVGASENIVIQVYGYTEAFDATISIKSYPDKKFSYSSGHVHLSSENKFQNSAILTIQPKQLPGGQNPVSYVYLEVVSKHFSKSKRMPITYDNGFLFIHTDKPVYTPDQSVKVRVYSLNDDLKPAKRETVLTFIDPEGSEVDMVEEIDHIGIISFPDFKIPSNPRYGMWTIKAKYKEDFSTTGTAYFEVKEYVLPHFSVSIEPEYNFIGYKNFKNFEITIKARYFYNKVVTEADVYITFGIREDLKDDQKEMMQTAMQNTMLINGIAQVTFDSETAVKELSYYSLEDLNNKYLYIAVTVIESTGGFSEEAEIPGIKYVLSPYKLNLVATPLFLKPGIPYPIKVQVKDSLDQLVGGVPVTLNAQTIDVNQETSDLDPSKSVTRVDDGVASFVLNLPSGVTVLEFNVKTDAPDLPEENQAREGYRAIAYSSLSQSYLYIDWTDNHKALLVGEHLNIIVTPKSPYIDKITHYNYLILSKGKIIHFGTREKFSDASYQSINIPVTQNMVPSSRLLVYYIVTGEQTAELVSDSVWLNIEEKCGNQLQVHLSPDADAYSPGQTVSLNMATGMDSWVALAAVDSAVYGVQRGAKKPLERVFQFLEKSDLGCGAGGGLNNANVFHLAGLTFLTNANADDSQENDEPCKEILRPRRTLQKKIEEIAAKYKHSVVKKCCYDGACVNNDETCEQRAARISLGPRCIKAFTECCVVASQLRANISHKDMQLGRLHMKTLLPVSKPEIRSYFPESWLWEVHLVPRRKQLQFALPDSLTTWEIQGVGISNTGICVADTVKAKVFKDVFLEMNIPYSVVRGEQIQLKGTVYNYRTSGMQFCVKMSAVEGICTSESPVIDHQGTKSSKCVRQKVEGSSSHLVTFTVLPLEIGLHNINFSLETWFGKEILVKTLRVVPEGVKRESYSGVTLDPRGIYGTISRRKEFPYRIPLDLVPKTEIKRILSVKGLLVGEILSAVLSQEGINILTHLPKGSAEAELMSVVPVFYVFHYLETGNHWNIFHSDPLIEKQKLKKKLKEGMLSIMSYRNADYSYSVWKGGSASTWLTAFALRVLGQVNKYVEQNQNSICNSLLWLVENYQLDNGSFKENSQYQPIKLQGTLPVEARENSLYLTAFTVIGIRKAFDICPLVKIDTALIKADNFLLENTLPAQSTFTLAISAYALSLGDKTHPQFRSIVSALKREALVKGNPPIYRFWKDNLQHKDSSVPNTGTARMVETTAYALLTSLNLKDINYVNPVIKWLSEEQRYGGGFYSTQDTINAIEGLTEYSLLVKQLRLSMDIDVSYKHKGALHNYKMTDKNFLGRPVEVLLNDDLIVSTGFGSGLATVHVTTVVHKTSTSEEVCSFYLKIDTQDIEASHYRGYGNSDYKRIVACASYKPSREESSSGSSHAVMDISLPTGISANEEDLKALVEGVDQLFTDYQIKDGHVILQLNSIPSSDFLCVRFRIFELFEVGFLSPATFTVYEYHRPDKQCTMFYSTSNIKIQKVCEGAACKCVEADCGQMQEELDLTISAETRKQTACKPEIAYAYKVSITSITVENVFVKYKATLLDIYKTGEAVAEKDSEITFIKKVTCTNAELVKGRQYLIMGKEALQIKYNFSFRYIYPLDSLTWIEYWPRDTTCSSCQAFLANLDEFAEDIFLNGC

For the substance “SKY59 (crovalimab, RO7112689) Includes am1-am6 and pm1-pm3 (pm3 is light chain F92K, Kabat), plus charge, deimmunization and Fc mutations that are not listed.”, the kd (pH 5.8) was 0.0145 s⁻¹. In addition, for the setting “pH 7.4”, the equilibrium dissociation constant (KD) (as a rule, the concentration at which binding is half-saturated) is 0.152 nM and the ka is 1.44e+06 M⁻¹ s⁻¹.
